Data reported in the nanobody polyreactivity screen of Harvey et al. (2022).

Test: yeast display, Sf9 membrane polyspecificity reagent, FACS + sequencing; frameworks hold sequencing errors
How it was run: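 Using colony PCR, genes from sorted yeast display clones were amplified, then sequenced on MiSeq at 2 × 250 and filtered by CDR length. The clones had been stained with 10% biotinylated, detergent-solubilized Sf9 membrane reagent for 1 hour at 4 °C and sorted by FACS into low and high (top ~1%) gates on anti-HA and streptavidin fluorescence. Polyreactivity labels come from the gate of origin.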

Sequence	polyreactivity (PSR sort gate)
QVQLVESGGGLVQAGGSLRLSCDASGSIFDGYGMGWYRQAPGKERELVASITWNDGSTYYADSVKGRFTISRDNAKNTVYLQMNSLKPEETAVYYCAADQWGYEYDYWGQGTQVTVSS	low polyreactivity
QVQLVESGGGLVQAGGSLRLSCDASGSIFGWYAMGWYRQAPGKERELVAAITFSSVSTYYADSVKGRFTISRDNAKNTVYLLMNSLKPEDTAVYYCAAVVYYTFDYWGQGTQVTVSS	low polyreactivity
QVQLVESGGGLVQAGGSLRLSCDASGSIFIYYAMGWYRQAPGKERELVAAIDYSGDSTYYADSVKGRFTISRDNAKNTVYGQMNSLKPEDTAVYYCARRGFLVHWPRPSYDYWGQGTQVTVSS	low polyreactivity
QVQLVESGGGLVQAGGSLRLSCDASGSIFLFNAMGWYIQAPGKERELVASISRASSTSYADSVKGRFTISRDNAKNTVYLQMNSLKPEDTAVYYCAAVVASFEFRFDYWGQGTQVTVSS	low polyreactivity
QVQLVESGGGLVQAGGSLRLSCDASGSIFQNYAMGWYRQAPGKERELVAAINDDSTYYADSVKGRFTISRDNAKNTVYLQMNSLKPEDTAVYYCNAEDYVTLKIDLSWPYGYWGQGTQVTVSS	low polyreactivity
QVQLVESGGGLVQAGGSLRLSCDASGSIFSKYVMGCYRQAPGKERELVASITSGGSTNYADSVKGRFTISRDNAKNTVYLQMTSQKPEDTAVYFCAARAINTWYRSGVDDWCQGTQVTVSS	low polyreactivity
QVQLVESGGGLVQAGGSLRLSCDASGSIFYDYAMGWYRQAPGKERELVAAITSDTTTNYADSVKGRFTISRDNAKNTVYLQMNSLKPEDTAVYYCNTPPQWLGRYITLTFDYWGQGTQVTVSS	low polyreactivity
QVQLVESGGGLVQAGGSLRLSCDASGSIFYRYAMGWYRQAPGKERELVASISSGVSTNYADSVKGRFTISRDNAKNTVYLQMNSLKPEDTAVYYCAAYYRGWSSSYWYPAYNYWGHGTQVTVSS	low polyreactivity
QVQLVESGGGLVQAGGSLRLSCDASGSIIISYDMGWYRQAPGKERELVAAIRSRVGSTYYSDSVKGRFTISRDNAKNTVYLQMNSLKPEDTAVYYCAADWVWADFDYWGQGTNVTVSS	low polyreactivity
QVQLVESGGGLVQAGGSLRLSCDASGSIISYYTMGWYRQAPWKERELVAAISLTGGSTYYADSVKGRFTISRDNAKNTVYLQMNSLKPEDTAVYYCIAVRYASPYGYWGQGTLVTVSS	high polyreactivity
QVQLVESGGGLVQAGGSLRLSCDASGSTFLTNTMGWYRQAPGKERELVAAISSGDSTYYADSVKGRFTISRDNAKNTVYLQLNSLKPEVTAVYYCARDGGWRNVPRDYWGQGTQVTVSS	low polyreactivity
QVQLVESGGGLVQAGGSLRLSCDASGSTFPVNAMGWYRQAPGKERELVAAISSRGSSTYYADSVKGRFTISRDNAKNTVYLQMNSLKPEDTAVYYCAAPQRYPRFYYWGQGTQVTVSS	high polyreactivity
QVQLVESGGGLVQAGGSLRLSCDASGSTFRANAMGWYRQAPGKERELVAAISWSGGRTYYADSVKGRFTISRDNAKNTVYLQMNSLKPEYTAVYYCAAPKLTSYDSWGQGTQVTVSS	high polyreactivity
QVQLVESGGGLVQAGGSLRLSCDASGSTFVGYTMGWYRQAPGKERELVAAITWRGGITYYADSVKGLFTISRDNAKNTVYLQMKSLKPEDTAVYYCAGARYRHGRSGTYDVTGEYWGQGTQVTVSS	high polyreactivity
QVQLVESGGGLVQAGGSLRLSCDASGSTFYPNAMGWYRQPPGKERELVAAITDSVCTTNYADSVKGRFTISRDNAKNTVYLQMNSLKPEDTAVYYCAKVKYYWNGYRYYYWGQGTQVTVSS	low polyreactivity
QVQLVESGGGLVQAGGSLRLSCDASGSTFYYNAMGWYRQAPGKERELVADISRGGSTYYADSVKGRFTISRDNAKNTVYLQMNSLKPEDTAVYDCAAQTYLLSQWWWFDIDYGYWGQGTQVTVSS	low polyreactivity
QVQLVESGGGLVQAGGSLRLSCDASGTLSPYAMGWYRQAPGKERELVAVITSNTGRTYADSVKGRFTISRYNSKNTVYLQKNTLNPQDTAFFYCYWGQGTQVTVTS	low polyreactivity
QVQLVESGGGLVQAGGSLRLSCEASGSTFLRNAMGWYRQAPGKKGSWVATISYAGDSTYYADSVKGRFTLSRDNAKNTVYLQMNSLKPEDTAVYYCAASYSLTFWDKDDYWGQGTQVTVSS	low polyreactivity
QVQLVESGGGLVQAGGSLRLSCGASGFIFVRYAMGWYRQAPGKERELVAAITKGGGRTYYADSVKGRFTISRDNAKNTVYLQMNSLKPEDTAVYYCATGGAHGRERDYGGQGTQVTVSS	high polyreactivity
QVQLVESGGGLVQAGGSLRLSCGASGFTFSGNVMGWYRQAPGKEREFVAAITSRGGSSYYADSVKGRFTISRDNAKNTVYLQMNSLKPEDTAVYYCNRRRWYFFSLDYWGQGTQVTVSS	high polyreactivity
QVQLVESGGGLVQAGGSLRLSCGASGLTFPLYAMGWYRQAPGKERELVAAITFSSGSTRYADSVKGRFTISRDNAKNTGSFQMNSLKPEDTALYYCAAVWYTYRTGPWYDYWGQGTQVTVSS	high polyreactivity
QVQLVESGGGLVQAGGSLRLSCGASGNTFYPNAMGWYRQAPGKERELVAAITTSGVTTYYADSVKGSFTISRDNAKNTVYLQINSLKPEDTAVYYCAAYWSRDKYYYWGQGTQVTVSS	low polyreactivity

Sequence	polyreactivity (PSR sort gate)
QVQLVESGGGLVQAGGSLRLSCGASGRIFGRYAMGWYRQAPAKERELVAVITFSGGDTFYADSVKGRFTISRDNAKNTVYLQMNSLKPEDTAVYYCAKSQGFETYRNVSIFGYWGQGTQVTVSS	low polyreactivity
QVQLVESGGGLVQAGGSLRLSCGASGRNFPGNAMGWYRQAPGKEREFVAVITSRTGNTYYADSVKGRFTISRDTAKNTVYLQMNSLKPEDSAVYYCNGEQYIWSEDYWGQGTQVSVSS	low polyreactivity
QVQLVESGGGLVQAGGSLRLSCGASGRTFSYYPMGWYRQAPGKERELVAAITSSGGRTYYADSVKGRFTISRDNAKNTVYLQMNSLKPEDTAVYYCAKELVKRYYWGQGTQVTVSS	high polyreactivity
QVQLVESGGGLVQAGGSLRLSCGASGSTFAINAMGWYRQAPGKERELVAAINWSGTTTYYADSVKGRFTISRDNAKNTVYLQMNSLKPEDTAVYYCNARYYVLRGYDYWGQGTQVTVSS	low polyreactivity
QVQLVESGGGLVQAGGSLRLSCGASGSTFNWYTMGWYRQAPGKERELVDAISMNGGRTYYADSVKWRFTISRDKAKNTVYLQMNSLKPEDTAVYYCAAQISFYFAQYNLARFRGYYWGQGTQVTVSS	high polyreactivity
QVQLVESGGGLVQAGGSLRLSCGASGSTFPTYAMGWYRQAPGKERELVAVITSSGGRTYYADSVKGRFTISRDNAKNTVYLQMNSLKPEDTAVYYCAKGSGTIYNLYDYWGQGTQVTVSS	high polyreactivity
QVQLVESGGGLVQAGGSLRLSCGATGTTFYYYAMGWYRQAPGKERELVPGINTSGGNTYYADSVKGRFTISRDNAKNTVYLQMNSLKPEDTAVYYCAVEGGSLHYAWYLWGYRSGGEYWGQGTQVTVSS	high polyreactivity
QVQLVESGGGLVQAGGSLRLSCPASGFIINVYVMGWYRQAPGKERELVAAISGGGSTYYADSVKGRFTISRDNAKNTVSLQMNSLKPEDTAVYYCAAVYYYQNEGYDFWGQGTQVTVSS	low polyreactivity
QVQLVESGGGLVQAGGSLRLSCPASGFTFSYYVMGWYRQSPGKERELVAAISSGGRTYYADSVKGRFTISRDNAKNTVYFQMNSLKPEDTAVYYCAAVRYSNEDDYWGQGTQVTVSS	high polyreactivity
QVQLVESGGGLVQAGGSLRLSCPASGHIFDYNALGWYRQAPGKERELVAAITSGGTTTYADSVKGRFTISRDNAKHTVYLQMNSLKPEDTAVYYCARKRYFGGWSRYGYGYWGQGTQVTVSS	high polyreactivity
QVQLVESGGGLVQAGGSLRLSCPASGIIFHPYAMGWYRQAPGKERQLVAVITWPGDSTYYADSVKGRFTISRDNAKNTVYVQMNSLKPEDTAVYYCNVEAWGTSGELPYDYWGQGTQVTVSS	low polyreactivity
QVQLVESGGGLVQAGGSLRLSCPASGNIFWWNARGWYRQAPGKERELVAAITSDSTTYYADSVKGRFTISRDNAKNTVYLQMNSLKPEDTAVYYCAAYSYGGQGVDYGYWGQGTQVTVSS	low polyreactivity
QVQLVESGGGLVQAGGSLRLSCPASGRIFTSYAMGWYRQEPGKERELVAAINRGGSTYYADSVKGRFTISRDNAKNTVYLQMNSLKPEDTAVYYCNASQPYNPEFDYWRQGTQVTVSS	low polyreactivity
QVQLVESGGGLVQAGGSLRLSCPASGRIFVRNAMGWYRQAPGKERELVAAITTSGGRTYYADSVKGRFTISRDLAKNPVYLQMNSLKPEDTAVYYCAAETRYRNFPYYYWGQCTQVTVSS	high polyreactivity
QVQLVESGGGLVQAGGSLRLSCPASGRILYLNVLGWYRQEPGKERELVASITVSGGITYYADSVKGRFTISRDNAKNTVYLQMNSLKPEDTAVYYCAVDAYPPFFYFTSVWFSYDYWGQGTQVTVSS	low polyreactivity
QVQLVESGGGLVQAGGSLRLSCPASGRTFKRYAMGWYRQEPGKEMELVASISWRGGSTYYADSVKGRFTISRDNAKNTVYLQMNSLKPEDTAVYYCAAEGPGNVYKLDYWGQGTQVTVSS	low polyreactivity
QVQLVESGGGLVQAGGSLRLSCPASGRTFYLYAMGWYRQAPGKVRELVARISGGGGRTYYADSVKGRFTISRDNAKNTVYLQMNSLKPEDSAVYYCNAQSPRGFTTPRQVYPLNGYWGQGTQVTVSS	high polyreactivity
QVQLVESGGGLVQAGGSLRLSCPASGSIFGWYPMAWYRQAPGKERELVAAITFYSVNTYYQDSVKGRFTISRDNAKNNVYLQMNSLKPEDTAVYYCSARGATVVSRGKLYYWGQGTQVSVSS	low polyreactivity
QVQLVESGGGLVQAGGSLRLSCPASGSIFNSYAMGWYRQAPGKERELVAAISSGGSTNYADSVKGRFTISRDNAKNTVYLQMNSLKPEDTAVYYCAKGSRKSGYKYYHGRVWFGYWGQGTQVTVSS	high polyreactivity
QVQLVESGGGLVQAGGSLRLSCPASGSIFYFYGMGWYRQAPGKEREFVAAISLYGGSTYYADSVKGRFTISRDNAKNTVYFQMNSLKPEDTAVYYCAARAWSYYHGKEDYWGQGTQVTVSS	high polyreactivity
QVQLVESGGGLVQAGGSLRLSCPASGSIVGYYVMGWYRQAPGKERELVAAISWSSGSTYYADSVKGRFTISRDNAKNTVYLQKNSLKPEDTAVYYCNASNVYFWFVTLEFDYWGQGTQVTVSS	low polyreactivity
